Results reported in patent CN110420334A, “一种药物缀合物和提高药物分子半衰期的方法” (Jiangnan University, priority 2019, dated 2019).
Read-outs that look alike come from different tables or passages of the source. Non-standard residues stand in square brackets, D forms with d. No end group written: not given here. pGlu = O=C1CC[C@@H](C(=O)O)N1

Tests used:
LHRH受体 = biological target: T1, LHRH受体 (Homo sapiens, UniProt P30968); experiment: Competitive flow cytometry against fluorescent anti-LHRH receptor antibody (Example 4); type: binding; conditions: MCF7 (LHRH high), 250nM, on ice 1h
T1 construct: MCF7(LHRH高表达)，UCI107(LHRH不表达); endogenous in cells; host or cells: MCF7 (positive), UCI107 (negative)
T1 sequence (P30968 1-328): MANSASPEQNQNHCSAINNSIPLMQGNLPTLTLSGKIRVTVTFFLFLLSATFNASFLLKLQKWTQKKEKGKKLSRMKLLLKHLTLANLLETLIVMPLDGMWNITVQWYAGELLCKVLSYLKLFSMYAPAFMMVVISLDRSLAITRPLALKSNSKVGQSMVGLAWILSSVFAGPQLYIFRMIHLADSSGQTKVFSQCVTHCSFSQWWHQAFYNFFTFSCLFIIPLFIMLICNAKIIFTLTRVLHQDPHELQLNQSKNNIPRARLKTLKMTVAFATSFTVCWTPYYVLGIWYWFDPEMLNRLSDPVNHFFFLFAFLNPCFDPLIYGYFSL

[1] = mouse, in vivo
CD13 = biological target: T2, CD13 (Homo sapiens, UniProt P15144); experiment: Competitive flow cytometry against fluorescent anti-CD13 antibody (Example 5); type: binding; conditions: HUVEC (CD13 high), 250nM, on ice 1h
T2 construct: HUVEC(CD13高表达)，MCF7(CD13不表达); endogenous in cells; host or cells: HUVEC (positive), MCF7 (negative)
T2 sequence (P15144 whole entry): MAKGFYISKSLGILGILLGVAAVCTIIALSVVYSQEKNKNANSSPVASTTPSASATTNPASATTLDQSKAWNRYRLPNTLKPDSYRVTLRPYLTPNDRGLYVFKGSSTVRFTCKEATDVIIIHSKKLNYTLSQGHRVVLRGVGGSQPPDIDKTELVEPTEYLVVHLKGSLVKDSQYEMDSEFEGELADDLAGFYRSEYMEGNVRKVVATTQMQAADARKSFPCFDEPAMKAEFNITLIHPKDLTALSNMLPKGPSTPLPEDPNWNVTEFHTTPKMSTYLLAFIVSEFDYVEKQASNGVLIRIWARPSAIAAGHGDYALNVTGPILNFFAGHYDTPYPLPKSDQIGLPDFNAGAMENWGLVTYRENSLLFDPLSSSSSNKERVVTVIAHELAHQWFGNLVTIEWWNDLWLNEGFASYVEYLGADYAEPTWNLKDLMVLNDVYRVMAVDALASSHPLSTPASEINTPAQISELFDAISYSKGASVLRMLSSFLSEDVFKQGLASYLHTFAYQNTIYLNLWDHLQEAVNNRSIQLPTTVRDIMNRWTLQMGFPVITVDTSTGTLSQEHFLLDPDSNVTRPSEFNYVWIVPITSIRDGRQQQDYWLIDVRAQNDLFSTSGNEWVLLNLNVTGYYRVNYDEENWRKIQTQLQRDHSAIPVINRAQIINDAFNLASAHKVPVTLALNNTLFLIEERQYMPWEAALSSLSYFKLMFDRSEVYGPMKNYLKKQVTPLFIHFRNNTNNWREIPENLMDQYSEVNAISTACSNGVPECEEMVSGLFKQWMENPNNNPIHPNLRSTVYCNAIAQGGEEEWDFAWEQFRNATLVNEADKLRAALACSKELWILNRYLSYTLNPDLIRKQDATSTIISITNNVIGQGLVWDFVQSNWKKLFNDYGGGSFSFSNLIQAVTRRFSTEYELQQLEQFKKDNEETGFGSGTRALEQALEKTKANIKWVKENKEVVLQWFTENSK

With “Glp-His-Trp-Ser-Tyr-D-Lys-Leu-Arg-Pro-Gly-NH2 (chain 1 [pGlu]HWSY; chain 2 [dK]LRPG-NH2; numbers in words are those of the source; also: chains 1 and 2 are one continuous chain (Tyr-D-Lys peptide bond)) [LHRH]” as the substance, how does the “competitive inhibition of anti-LHRH receptor antibody binding to LHRH receptor” value (LHRH受体) read?
Its value is “竞争性抑制”.

And the serum half-life [1]?
The serum half-life was 2.2 min.

And the serum half-life ([1]; iv)?
The serum half-life was 2.6 min.

With “NGR-DNP: cyclic NGR peptide (chain GGGCNGRC) coupled with DNP by amide condensation (not fully specified (bridges); cysteine pairing not given here; also: DNP conjugated by amide condensation, position not given here)” as the substance, how does the “competitive inhibition of anti-CD13 antibody binding to HUVEC” value (CD13) read?
The value was “竞争性抑制”.
